Experiment: melting temperature; melt of duplexes
Conditions: sodium 0.0675 M; strand 1 µM

Substance	Tm [°C]
CGACGTGCCCAATGTGCTG+CAGCACATGCTGCACGTCG ((((((((...((((((((+))))))))...))))))))	47.8
CGACGTGCCTGATGTGCTG+CAGCACATAAAGCACGTCG ((((((((.(.((((((((+)))))))).).))))))))	51.7
CGACGTGCCTGATGTGCTG+CAGCACATTTAGCACGTCG ((((((((...((((((((+))))))))...))))))))	49.6
CGACGTGCGTAATGTGCTG+CAGCACATATGGCACGTCG ((((((((...((((((((+))))))))...))))))))	51
CGACGTGCCTGATGTGCTG+CAGCACATTAAGCACGTCG ((((((((.(.((((((((+)))))))).).))))))))	50.8
CGACGTGCTTTATGTGCTG+CAGCACATGACGCACGTCG ((((((((.(.((((((((+)))))))).).))))))))	47.1
CGACGTGCTTTATGTGCTG+CAGCACATTTTGCACGTCG ((((((((...((((((((+))))))))...))))))))	49.5
CGACGTGCGTTATGTGCTG+CAGCACATGTAGCACGTCG ((((((((...((((((((+))))))))...))))))))	53.6
CGACGTGCATAATGTGCTG+CAGCACATCTGGCACGTCG ((((((((...((((((((+))))))))...))))))))	49.3
CGACGTGCATCATGTGCTG+CAGCACATACCGCACGTCG ((((((((...((((((((+))))))))...))))))))	46.6
CGACGTGCTTTATGTGCTG+CAGCACATATGGCACGTCG ((((((((..(((((((((+)))))))))..))))))))	51.6
CGACGTGCCGTATGTGCTG+CAGCACATCCAGCACGTCG ((((((((.(.((((((((+)))))))).).))))))))	49.8
CGACGTGCACTATGTGCTG+CAGCACATGTTGCACGTCG (((((((((..((((((((+))))))))..)))))))))	48.9
CGACGTGCACCATGTGCTG+CAGCACATGCGGCACGTCG ((((((((..(((((((((+)))))))))..))))))))	50.4
CGACGTGCGTTATGTGCTG+CAGCACATAAGGCACGTCG ((((((((.((((((((((+)))))))))).))))))))	56.5
CGACGTGCTCCATGTGCTG+CAGCACATGTTGCACGTCG ((((((((..(((((((((+)))))))))..))))))))	52.7
CGACGTGCTGCATGTGCTG+CAGCACATACCGCACGTCG ((((((((.(.((((((((+)))))))).).))))))))	50.7
CGACGTGCCAAATGTGCTG+CAGCACATAATGCACGTCG ((((((((...((((((((+))))))))...))))))))	48.2
CGACGTGCCGGATGTGCTG+CAGCACATTGTGCACGTCG ((((((((...((((((((+))))))))...))))))))	47.3
CGACGTGCGACATGTGCTG+CAGCACATCTCGCACGTCG ((((((((((.((((((((+)))))))).))))))))))	55.4
CGACGTGCCGAATGTGCTG+CAGCACATGCGGCACGTCG ((((((((((.((((((((+)))))))).))))))))))	61.6
CGACGTGCGCGATGTGCTG+CAGCACATGAAGCACGTCG ((((((((...((((((((+))))))))...))))))))	54.4
CGACGTGCTAAATGTGCTG+CAGCACATACAGCACGTCG (((((((((..((((((((+))))))))..)))))))))	51.9
CGACGTGCACTATGTGCTG+CAGCACATTTGGCACGTCG ((((((((...((((((((+))))))))...))))))))	45.3

Substance	Tm [°C]
CGACGTGCTGCATGTGCTG+CAGCACATGTTGCACGTCG ((((((((..(((((((((+)))))))))..))))))))	56.4
CGACGTGCAGGATGTGCTG+CAGCACATCACGCACGTCG ((((((((..(((((((((+)))))))))..))))))))	55.9
CGACGTGCTCTATGTGCTG+CAGCACATAAAGCACGTCG (((((((((.(((((((((+))))))))).)))))))))	54
CGACGTGCGATATGTGCTG+CAGCACATGGGGCACGTCG ((((((((...((((((((+))))))))...))))))))	51.3
CGACGTGCGGGATGTGCTG+CAGCACATCGAGCACGTCG ((((((((..(((((((((+)))))))))..))))))))	58.1
CGACGTGCTGCATGTGCTG+CAGCACATATCGCACGTCG ((((((((...((((((((+))))))))...))))))))	48.3
CGACGTGCCTGATGTGCTG+CAGCACATCAGGCACGTCG (((((((((((((((((((+)))))))))))))))))))	65.9
CGACGTGCGGGATGTGCTG+CAGCACATTTAGCACGTCG ((((((((...((((((((+))))))))...))))))))	53.4
CGACGTGCCGAATGTGCTG+CAGCACATGGCGCACGTCG ((((((((...((((((((+))))))))...))))))))	51.5
CGACGTGCCGAATGTGCTG+CAGCACATCTTGCACGTCG ((((((((...((((((((+))))))))...))))))))	48.8
CGACGTGCCTTATGTGCTG+CAGCACATTGAGCACGTCG ((((((((...((((((((+))))))))...))))))))	49.6
CGACGTGCGGTATGTGCTG+CAGCACATCTTGCACGTCG ((((((((...((((((((+))))))))...))))))))	50.7
CGACGTGCTTGATGTGCTG+CAGCACATACCGCACGTCG ((((((((...((((((((+))))))))...))))))))	48.4
CGACGTGCACTATGTGCTG+CAGCACATTCAGCACGTCG ((((((((...((((((((+))))))))...))))))))	43.4
CGACGTGCTGCATGTGCTG+CAGCACATTAGGCACGTCG ((((((((...((((((((+))))))))...))))))))	50.4
CGACGTGCTACATGTGCTG+CAGCACATGCGGCACGTCG ((((((((..(((((((((+)))))))))..))))))))	54.1
CGACGTGCGTAATGTGCTG+CAGCACATTCGGCACGTCG ((((((((..(((((((((+)))))))))..))))))))	53.1
CGACGTGCCTGATGTGCTG+CAGCACATAGTGCACGTCG ((((((((...((((((((+))))))))...))))))))	46.5
CGACGTGCGGTATGTGCTG+CAGCACATTGCGCACGTCG (((((((((..((((((((+))))))))..)))))))))	55.4
CGACGTGCGGGATGTGCTG+CAGCACATAGGGCACGTCG ((((((((...((((((((+))))))))...))))))))	50.1
CGACGTGCGGTATGTGCTG+CAGCACATCCAGCACGTCG ((((((((.(.((((((((+)))))))).).))))))))	55.1
CGACGTGCAACATGTGCTG+CAGCACATAAAGCACGTCG ((((((((...((((((((+))))))))...))))))))	48.9
CGACGTGCAACATGTGCTG+CAGCACATCGCGCACGTCG ((((((((...((((((((+))))))))...))))))))	47.7
CGACGTGCATAATGTGCTG+CAGCACATCACGCACGTCG ((((((((.(.((((((((+)))))))).).))))))))	47.6

Substance	Tm [°C]
CGACGTGCAGTATGTGCTG+CAGCACATAGCGCACGTCG ((((((((..(((((((((+)))))))))..))))))))	51.7
CGACGTGCTGGATGTGCTG+CAGCACATTCTGCACGTCG ((((((((.(.((((((((+)))))))).).))))))))	55.6
CGACGTGCCATATGTGCTG+CAGCACATATGGCACGTCG (((((((((((((((((((+)))))))))))))))))))	63
CGACGTGCGTCATGTGCTG+CAGCACATGGCGCACGTCG (((((((((.(((((((((+))))))))).)))))))))	63.5
CGACGTGCGCAATGTGCTG+CAGCACATCACGCACGTCG (((((((((..((((((((+))))))))..)))))))))	54
CGACGTGCCCTATGTGCTG+CAGCACATACAGCACGTCG ((((((((..(((((((((+)))))))))..))))))))	48.8
CGACGTGCTGAATGTGCTG+CAGCACATCTTGCACGTCG ((((((((...((((((((+))))))))...))))))))	50.5
CGACGTGCTCCATGTGCTG+CAGCACATTGAGCACGTCG ((((((((((.((((((((+)))))))).))))))))))	56.5
CGACGTGCTGAATGTGCTG+CAGCACATAAAGCACGTCG (((((((((..((((((((+))))))))..)))))))))	55.5
CGACGTGCTTCATGTGCTG+CAGCACATAATGCACGTCG ((((((((.(.((((((((+)))))))).).))))))))	50.4
CGACGTGCTTCATGTGCTG+CAGCACATTCGGCACGTCG ((((((((...((((((((+))))))))...))))))))	48.1
CGACGTGCCCAATGTGCTG+CAGCACATGTTGCACGTCG ((((((((...((((((((+))))))))...))))))))	49.4
CGACGTGCTCTATGTGCTG+CAGCACATAGTGCACGTCG ((((((((.((((((((((+)))))))))).))))))))	54.1
CGACGTGCCTCATGTGCTG+CAGCACATCTAGCACGTCG ((((((((...((((((((+))))))))...))))))))	47.8
CGACGTGCAGGATGTGCTG+CAGCACATTAGGCACGTCG ((((((((...((((((((+))))))))...))))))))	51.3
CGACGTGCCCTATGTGCTG+CAGCACATCTAGCACGTCG ((((((((...((((((((+))))))))...))))))))	48
CGACGTGCACGATGTGCTG+CAGCACATCTTGCACGTCG (((((((((.(((((((((+))))))))).)))))))))	55.7
CGACGTGCGGCATGTGCTG+CAGCACATCCCGCACGTCG ((((((((((.((((((((+)))))))).))))))))))	58.3
CGACGTGCGCAATGTGCTG+CAGCACATTATGCACGTCG ((((((((..(((((((((+)))))))))..))))))))	52.6
CGACGTGCTACATGTGCTG+CAGCACATCGTGCACGTCG ((((((((...((((((((+))))))))...))))))))	46.6
CGACGTGCTCTATGTGCTG+CAGCACATTCCGCACGTCG ((((((((...((((((((+))))))))...))))))))	46.7
CGACGTGCGTAATGTGCTG+CAGCACATTCCGCACGTCG (((((((((.(((((((((+))))))))).)))))))))	57.7
CGACGTGCCATATGTGCTG+CAGCACATGCGGCACGTCG (((((((((..((((((((+))))))))..)))))))))	54.1
CGACGTGCCCGATGTGCTG+CAGCACATAAAGCACGTCG ((((((((...((((((((+))))))))...))))))))	49.8

From the array DNA melting data of Ke et al.
